Reference: PMC5915575
Substitutions are numbered along the chain they refer to.

What was measured:
Details in all cases: EMSA: 10 mM Tris-HCl pH 7.5, 1 mM EDTA, 50 mM NaCl, 5% glycerol, 30 min room temperature, 10 pmol DNA, 0-18 ug protein, 5% native PAGE at 4 °C; BLI: PBS pH …
[1] = system: T1, SigB(Q225P) Q224P (Staphylococcus aureus (strain of the cloned gene not stated; XQW or Newman-SigB(Q225P)?)), ORF:92324cdd; assay: EMSA
T1 sequence: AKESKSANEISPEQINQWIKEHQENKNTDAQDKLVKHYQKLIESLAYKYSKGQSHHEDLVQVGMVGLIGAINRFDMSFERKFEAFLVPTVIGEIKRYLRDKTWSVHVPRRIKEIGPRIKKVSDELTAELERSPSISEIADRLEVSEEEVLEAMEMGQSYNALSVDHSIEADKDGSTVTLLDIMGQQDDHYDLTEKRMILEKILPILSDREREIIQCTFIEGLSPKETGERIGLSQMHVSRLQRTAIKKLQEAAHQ

[2] = system: T2, SigB (Staphylococcus aureus (strain of the cloned gene not stated; Newman or XQ?)), ORF:92324cdd; assay: EMSA
T2 sequence: T1 sequence with P224Q

[3] = system: SigB(Q225P) (Staphylococcus aureus (strain of the cloned gene not stated; XQW or Newman-SigB(Q225P)?)); assay: BLI
[4] = system: SigB (Staphylococcus aureus (strain of the cloned gene not stated; Newman or XQ?)); assay: BLI

| Substance | binding [1] | binding [2] | Kd [3] [nM] | Kd [4] [nM] |
| --- | --- | --- | --- | --- |
| ACGCATAGGGACTTCGTGACCATTTACAGTCACAACTTTACTTAAGTTAATAAGTGTTAATTCATCAAACGACAGTTGTTCAACTGGTTGATGATGGTATTTCTTCATTCTTGTAAGTAAATTATTAATACGTAAAACGAGTTCCCTTGGACTAAATGGTTTTTTGACATAGTCATCTGCACCTAAAGTTAAGGCG (double strand) [saeR coding region fragment] | no binding | no binding | – | – |
| biotin-labeled nuc promoter (BLI) | – | – | 273 | 113 |
